# Reference: EP4782837A1
# Biological target: Cetux-probe (cetuximab conjugated with the C-probe)
# Assay: cell-based or functional assay
row,Substance,"fold increase of Cetux-probe fluorescence on enzyme treatment (37°C, 1 hour) [fold]"
1,cathepsin B (enzyme),24
2,papain (from UniProt P00784 134-345) (enzyme),13.5
